The target in assay [1] is Uroplakin Ia (Mus musculus) (UniProt Q9D132). The note with it: cited from earlier work.
The next assay concerns the target T1, uroplakin Ia (mouse, UniProt Q9D132 1-257, high mannose glycan at its single glycosylation site).
T1 sequence (looked up): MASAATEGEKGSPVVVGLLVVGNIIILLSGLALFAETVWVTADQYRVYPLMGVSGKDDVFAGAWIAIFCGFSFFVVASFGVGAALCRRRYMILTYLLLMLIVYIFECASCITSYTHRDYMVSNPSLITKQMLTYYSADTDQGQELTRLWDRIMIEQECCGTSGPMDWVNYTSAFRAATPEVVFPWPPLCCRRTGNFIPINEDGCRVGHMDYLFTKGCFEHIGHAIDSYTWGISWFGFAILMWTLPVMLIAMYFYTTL
Nature of the assay: cryo-EM structure.

A further assay addresses T2, uroplakin IIIa (mouse, UniProt Q9JKX8 19-287).
T2 sequence (looked up): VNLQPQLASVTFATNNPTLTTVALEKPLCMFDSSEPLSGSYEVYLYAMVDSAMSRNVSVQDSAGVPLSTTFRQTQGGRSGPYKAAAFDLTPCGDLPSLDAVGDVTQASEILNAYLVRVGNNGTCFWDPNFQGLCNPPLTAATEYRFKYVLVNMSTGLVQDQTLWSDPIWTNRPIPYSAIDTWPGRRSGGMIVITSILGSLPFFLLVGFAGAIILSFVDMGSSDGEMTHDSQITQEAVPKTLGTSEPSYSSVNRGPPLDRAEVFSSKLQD
As to the kind of experiment: cryo-EM structure.

For orientation: Kd means a measure of binding affinity in units of concentration.

Take FimH (from UniProt P08191): the equilibrium dissociation constant (Kd) in assay [1] is 100 nM.

B1: uroplakin II (natural protein, mouse, UniProt P38575 85-184, looked up)
chain: ELVSVVDSGSGYTVTRLSAYQVTNLTPGTKYYISYRVQKGTSTESSPETPMSTLPRKNMESIGLGMARTGGMVVITVLLSVAMFLLVVGLIVALHWDARK
With B1, in the assay with uroplakin Ia, the binding result is recorded as “binds”.

B2: uroplakin Ib (natural protein, mouse, UniProt Q9Z2C6 1-260, looked up)
chain: MAKDDSTVRCFQGLLIFGHVIVGMCGIALTAECIFFVSDQHSLYPLLEATNNDDIFGAAWIGMFVGICLFCLSVLAIVGIMKSNRKILLAYFIMMFIVYGFEVASCITAATQRDFFTTNLFLKQMLMRYQNNSPPTNDDEWKNNGVTKTWDRLMLQDHCCGVNGPSDWQKYTSAFRVENNDADYPWPRQCCVMDKLKEPLNLDACKLGVPGYYHSQGCYELISGPMDRHAWGVAWFGFAILCWTFWVLLGTMFYWSRIEY
On to B2, for which the binding result with uroplakin IIIa is given as “binds”.

(Values after PMC2755582 (Journal of molecular biology, 2009).)
